This is an account of results in paper doi:10.1101/2021.01.20.427433, “Microarray screening reveals a non-conventional SUMO-binding mode linked to DNA repair by non-homologous end-joining” (bioRxiv, 2021).

This test deals with T1, XLF-6xHis (human, UniProt Q9H9Q4 1-299).
T1 construct: XLF, human, amplified from pGEX2TKP-XLF; source: E. coli (pHAT5), purified (His-trap, HiTrap Q)
Briefly: BLI; XLF-6xHis and XRCC4^1-164 wildtype or mutants. Conditions: both partners purified. Background: BLI is a label-free optical method that tracks binding on a fibre tip over time.

T1 sequence (Q9H9Q4 whole entry): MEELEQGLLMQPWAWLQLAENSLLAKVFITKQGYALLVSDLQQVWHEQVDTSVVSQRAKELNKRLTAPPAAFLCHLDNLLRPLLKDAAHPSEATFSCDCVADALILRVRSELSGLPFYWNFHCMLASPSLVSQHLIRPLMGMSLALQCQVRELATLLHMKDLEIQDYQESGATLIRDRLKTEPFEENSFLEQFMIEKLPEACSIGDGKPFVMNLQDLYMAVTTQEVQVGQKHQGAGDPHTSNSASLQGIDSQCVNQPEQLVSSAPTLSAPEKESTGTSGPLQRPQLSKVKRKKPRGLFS

B1: 6xHis-XRCC4^1-164 (C-to-A), wildtype for the SIMs (domain or fragment, human, UniProt Q13426 1-164, looked up)
chain: MERKISRIHLVSEPSITHFLQVSWEKTLESGFVITLTDGHSAWTGTVSESEISQEADDMAMEKGKYVGELRKALLSGAGPADVYTFNFSKESAYFFFEKNLKDVSFRLGSFNLEKVENPAEVIRELIAYALDTIAENQAKNEHLQKENERLLRDWNDVQGRFEK
modifications: 15N-labelled where it is the observed protein in NMR
notes: The three cysteines are printed for the 1-180 construct amplified from this vector; also called XRCC4 head domain; source: E. coli BL21-CodonPlus (DE3)-RIL (pET-28a), purified; isotope-labelled in minimal medium for NMR
For the molecule B1, the binding result is “binds”.
